Laboratory results reported in patent publication US20050112126A1 (Genentech, published 2005).

Molecular target: T1, VEGF (human, UniProt P15692-4 27-191, limits assumed)
T1 construct: Biotinylated in the KDR-IgG ELISA, amine-coupled to the chip in BIAcore; also called biotinylated VEGF; vascular endothelial growth factor
Test: competitive phage-ELISA, relative to pY0192
Description: In such an assay, phages were first serially diluted to determine a fractional saturation titer which was then held constant and used to incubate with varying concentrations of VEGF (starting at 200 nM to 0 nM) in solution. The mixture was then transferred onto plate precoated with VEGF (2 μg/mL) and blocked with 5% instant milk, and allowed to equilibrate for 1 hour at room temperature. Thereafter, the phage solution was removed and the remaining bound phages were detected with a solution of rabbit anti-phage antibody mixed with goat anti-rabbit conjugate of horse radish peroxidase. After an hour incubation at room temperature, the plate was developed with a chromogenic substrate, o-phenylenediamine (Sigma). The reaction was stopped with addition of ½ volume of 2.5 M H₂SO₄. Optical density at 492 nm was measured on a spectrophotometric plate reader.
IC50's were determined in a competitive phage-ELISA assay.

T1 sequence (P15692 other isoform, or with tags, fused parts or gaps limits assumed): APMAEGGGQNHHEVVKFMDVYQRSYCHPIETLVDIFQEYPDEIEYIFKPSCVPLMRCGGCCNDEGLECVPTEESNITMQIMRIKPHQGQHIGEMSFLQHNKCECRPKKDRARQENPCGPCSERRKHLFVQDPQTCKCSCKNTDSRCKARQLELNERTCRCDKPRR

Binder	IC50 (mut)/IC50 (wt) [ratio]
pY0192 VL A25S (Fab, V domains shown, Ala-scan variant of pY0192; Fab on phage) VH: EVQLVESGGGLVQPGGSLRLSCAASGYTFTNYGINWVRQAPGKGLEWVGWINTYTGEPTYAADFKRRFTFSLDTSKSTAYLQMNSLRAEDTAVYYCAKYPHYYGSSHWYFDVWGQGTL VL: DIQLTQSPSSLSASVGDRVTITCRSNEQLSNYLNWYQQKPGKAPKVLIYFTSSLHSGVPSRFSGSGSGTDFTLTISSLQPEDFATYYCQQYSTVPWTFGQGTKVEIKR	1
pY0192 VL L29A (Fab, V domains shown, Ala-scan variant of pY0192; Fab on phage) VH: EVQLVESGGGLVQPGGSLRLSCAASGYTFTNYGINWVRQAPGKGLEWVGWINTYTGEPTYAADFKRRFTFSLDTSKSTAYLQMNSLRAEDTAVYYCAKYPHYYGSSHWYFDVWGQGTL VL: DIQLTQSPSSLSASVGDRVTITCRANEQASNYLNWYQQKPGKAPKVLIYFTSSLHSGVPSRFSGSGSGTDFTLTISSLQPEDFATYYCQQYSTVPWTFGQGTKVEIKR	1
pY0192 VL H55A (Fab, V domains shown, Ala-scan variant of pY0192; Fab on phage) VH: EVQLVESGGGLVQPGGSLRLSCAASGYTFTNYGINWVRQAPGKGLEWVGWINTYTGEPTYAADFKRRFTFSLDTSKSTAYLQMNSLRAEDTAVYYCAKYPHYYGSSHWYFDVWGQGTL VL: DIQLTQSPSSLSASVGDRVTITCRANEQLSNYLNWYQQKPGKAPKVLIYFTSSLASGVPSRFSGSGSGTDFTLTISSLQPEDFATYYCQQYSTVPWTFGQGTKVEIKR	1
pY0192 VL L54A (Fab, V domains shown, Ala-scan variant of pY0192; Fab on phage) VH: EVQLVESGGGLVQPGGSLRLSCAASGYTFTNYGINWVRQAPGKGLEWVGWINTYTGEPTYAADFKRRFTFSLDTSKSTAYLQMNSLRAEDTAVYYCAKYPHYYGSSHWYFDVWGQGTL VL: DIQLTQSPSSLSASVGDRVTITCRANEQLSNYLNWYQQKPGKAPKVLIYFTSSAHSGVPSRFSGSGSGTDFTLTISSLQPEDFATYYCQQYSTVPWTFGQGTKVEIKR	1
pY0192 VL N26A (Fab, V domains shown, Ala-scan variant of pY0192; Fab on phage) VH: EVQLVESGGGLVQPGGSLRLSCAASGYTFTNYGINWVRQAPGKGLEWVGWINTYTGEPTYAADFKRRFTFSLDTSKSTAYLQMNSLRAEDTAVYYCAKYPHYYGSSHWYFDVWGQGTL VL: DIQLTQSPSSLSASVGDRVTITCRAAEQLSNYLNWYQQKPGKAPKVLIYFTSSLHSGVPSRFSGSGSGTDFTLTISSLQPEDFATYYCQQYSTVPWTFGQGTKVEIKR	1
pY0192 VL L33A (Fab, V domains shown, Ala-scan variant of pY0192; Fab on phage) VH: EVQLVESGGGLVQPGGSLRLSCAASGYTFTNYGINWVRQAPGKGLEWVGWINTYTGEPTYAADFKRRFTFSLDTSKSTAYLQMNSLRAEDTAVYYCAKYPHYYGSSHWYFDVWGQGTL VL: DIQLTQSPSSLSASVGDRVTITCRANEQLSNYANWYQQKPGKAPKVLIYFTSSLHSGVPSRFSGSGSGTDFTLTISSLQPEDFATYYCQQYSTVPWTFGQGTKVEIKR	2
pY0192 VL F50A (Fab, V domains shown, Ala-scan variant of pY0192; Fab on phage) VH: EVQLVESGGGLVQPGGSLRLSCAASGYTFTNYGINWVRQAPGKGLEWVGWINTYTGEPTYAADFKRRFTFSLDTSKSTAYLQMNSLRAEDTAVYYCAKYPHYYGSSHWYFDVWGQGTL VL: DIQLTQSPSSLSASVGDRVTITCRANEQLSNYLNWYQQKPGKAPKVLIYATSSLHSGVPSRFSGSGSGTDFTLTISSLQPEDFATYYCQQYSTVPWTFGQGTKVEIKR	1
pY0192 VL E27A (Fab, V domains shown, Ala-scan variant of pY0192; Fab on phage) VH: EVQLVESGGGLVQPGGSLRLSCAASGYTFTNYGINWVRQAPGKGLEWVGWINTYTGEPTYAADFKRRFTFSLDTSKSTAYLQMNSLRAEDTAVYYCAKYPHYYGSSHWYFDVWGQGTL VL: DIQLTQSPSSLSASVGDRVTITCRANAQLSNYLNWYQQKPGKAPKVLIYFTSSLHSGVPSRFSGSGSGTDFTLTISSLQPEDFATYYCQQYSTVPWTFGQGTKVEIKR	1
